Measured values from article doi:10.1101/2022.04.21.489128.

Molecular target: wild-type FliM (Vibrio alginolyticus flagellar rotor C-ring protein) with an N-terminal His-tag (V. alginolyticus)
Test: SEC

wild-type FliM (Vibrio alginolyticus flagellar rotor C-ring protein) with an N-terminal His-tag (natural protein)
stoichiometry N: 2
